Experimental data from the DeepSol protein solubility set.

Experiment: soluble on expression in E. coli; label from the status in PepcDB or PDB records

Sequence	soluble on expression in E. coli
MGSDKIHHHHHHMSWHNKVVWSEGLFLRPQLFQQQERYLEHYAHRRAATLSPFFFGFSHYSLDSEALALGKVIVKSASGVFADGTPFDTPGSTPPPAPLTIRAEHLDQLIYLAVPVRVPNAEETTFDNAADSLARNFVFDTELRDTNSIGQGPKTVQLSNLRLRLVPEKELTDAWIGLALTRVKTIRADSSIVLDDTLIPPVAGFGASELLTSWLAKIHELTRLRANSLAIRLTGANGNAGTTAEVSDYLLLQTLNRYEPLLQHLRRVPTTSPADLYALLLSMAGELSTYLRTDSRRPLDSHPAYQHSTPHLCLKPLVDDTHVLLNAVLVRSAQSIELKELGHGMRNAVVDPVDMAGFTAVVLAVHAAMPPDLLQQQFAAQAKAGPSERLPDLVRGHLPGITLQALPVPPRQIPFNAGFVYYELARSGPLWDEVARHGGLALHVAGEFPSLKLELWGVRS	not soluble
GPGSMPPKNAVKRNQKSSKQRDNFDEAAIDALIMAIEGKAKKGTTKSQLKQKEDKSLSRANGQSYVLSEQMRNALLAQMQQPTAQEEQYVNVPVPLTGEEKGWQEVAPNRYIRYEQFGGSDAEMNFIVNLFTAELTEPYSSFTYQYFVFGWPDLCITAFGVESETKPDNSVVGEKVGAVVSRVTRKGAGMPLRGYVAMFAVVPKFRGYRLGSRLVSLTVELMRAKGCDEVYLETPTSNVRALGLYLNLGFAKTKYLPRYYLDHSDARASEAVAEGCHPKVCPRDCFHGWCGEGVAGTLRVCLE	soluble
MDDDFVRALNKFNSKFSFRNKKNSLNEVLQKNKRNDKKEDINCNKLKNDLELQYIHSSNNKICQKFLTLPLNKKSDKLKDHSDKIILPVSILKTLEKGNYKNEVEFPYTFSIKNVQNNYITHACVLEFSSNEGIIFVSDNIKENLGLNKPQNSSIARVLITYCILSKCDFIKLDSLNNNINDIKYMKNLLENELSLNYSTLTLGDYIHINHLNFYISELEPDNAVSLINTDINVDICERNNMEGYKNVNILGDHKDIYEIIKIDIPINSSIQKGMNKYKFVLNNNTLDLLKKGKIELAIHLQSQMMLHSLNLFISLPPLDSVSEVLHHLYIDDYSTDEIIINREVIRNILKLHFACMIKEQPYNKNNDNHHANDKEDNVHNGTCNDHHEDDKIEKQNYDDSFLEYIFEHFFPHIIYIGVHNYMDTLVDYSICLKLNGEKNMSTKKDDSNNKCVNTSGFIHNNINLLKNININTQDIDNNNNDDTYITCDNCLKNILKYNIHMHKIHCLKNFTLCNICKKVLKKNEKDNHIHCDICNEGMHKNKKKTHELIWHTQIKCVCDKLLFRKQFIFHQNLFCPKKIIYCTFCNIFTQSNINIYNEEFILATFFDKYDNIKTNNSTVNKSIKYYYNMLFTYFHFFLKYIKNTEHEKYCGSKSINCTICKQIIYRNEYLLHLNTLHHFNKIESFKIINDNADLSQLMN	not soluble
MSLRPGQVDNDVINLVAMLFEFILDDRHLHSVMKSLLGRLQIPILKVALTDKNFFNRGGHPARKLLNEMALAATGWTEKRPGQRDPLLDKISAVVNRILAEFSTDVSLFNELLDDFNQFSDLDQRRSDLVEQRLRDAEEGRARHEQATADTKELLHEAMDGRLLPEPVQDMLNGPWSHYLHWLALHESTDSEAWQRAKTLTEQLIWTIDPVPLTATTHELLQQAIPQVIEQLRGALEGVAWDGLSVEMVVRDLELVHLDVFQRLVIAPSEAAGNDHAQIDDSQEAPAVRADAVPSDTTNTSADVSHPAPALPVAADDPKEAVVARVPEPTRAQPVVAEEWLAKADGLRVGCWLELNRDGSQIRCKLAAFIRAVDKYIFVNRSGAKVAEYRRNELAEMMAQGHIEILDDGLIFDRALESIIDNLRTSRREGHHHHHH	soluble
MSLNQTFDKENLESKNTQNLQKSKNPTSQLSKTILKEEFNFLPNDVEINWKGRVLVIGDIHGDLKSLITSLFLSGVINSNLDWIAKNTLLIQLGDVVDRGSHALQIYKLFNKLKSQAPSLGSKFVGLLGNHEVMNLCGQLHYVTDEDFQTYGGRDNRTFEWSKEGFVGKYLRTMKLAIRVNDSLYVHAGLLPKYAKLGLDKLDKLSNDLLEGDFCDFYSSLFFVEDGPLWTRDISLGEEEKACKLVDETLQILGLSRMVVGHTIQHDNRINIKCDNKLILADTGFSEAIYGKPCMLEILYHNDNPDPSNYKSFHPYSEGHHHHHH	not soluble
MKKKILKVATALTIMGGVAFSAEGATAKAELAAKPQQASQAIFKDVPAGHWSYEAIQTLAEQEIMLGYGNGVFGFGHNVTREQVAALIYRALDLDEEFGEDEELESPYNDIVDDNSTMFPFEVLAVTELGIFTGDEKGNFRPKDTLTRAEMAQVLTRAFGLQVQGLAGFKDVPKGHWAENAINAVGSNGISVGDGNGNFAPNMKVTREQYAQFLFRAL	not soluble
MGSDKIHHHHHHMRTFQYANANPSANVSPMGRTSLATSAAKARGPLNGLIAERMRQLNLSTVKDFADYAGIGRTSIHDLVRGRTTTSGTWTKPSFDTLTKLAVALDKPTHELLYLIDPEAPGANLMFDVQQVPVYIAGQVGAGPQQLWESSDVVYVERQFAENRDLIAFTVVGDSMAGGRHPIHDGDVVIVDQRVGGEVNFPVVARLKDDGHVVKRCGPAASSTAPTRTSWTLTPQSLPLTVSPTWWDASSG	not soluble
MGMSSLRDLGLSEYEARAYRSLLETGPTTAKELSRASDVPMGRIYDVLNSLETYNLVRSQTASRPKKYVAVEPDTALDRLLEDKKRELQEKVGQYEEIVDDLSSQLESADPVEEPFWTAAVGPDNSLDLLLERLAAADDEIIMVGSAPARQVDILSGTERIVDELEAALERGVEVSLLVRPDLFESLPEEANREYYERLFHYDNYSARASPNIRTTFELLDGVEVCIEVPHPLGREETFGVIDMKDSDFTADISQAFEEHWAEAKPVGPP	not soluble
MSFAQQKLSELAVSIPGATKIFREYDLDFCCGGSVLLEVAAQQKNLNLAEIEKRLTDLQQSKAENNDKDWTSASYAEMIDHIITRFHNRHREQLPELITLAEKVENIHGDRDDCPIGVVAQLEKIYAELSQHLMKEEQILFPMIKMGNYAMASMPIRVMEMEHDEAGQDVEVIKSLTNNCTPPADACFSWKALYSGINEFIDDLMHHIHLENNILFPRVLNEK	not soluble
MGSDKIHHHHHHMETKINSKALKAEALRLGFSACGIAPAEPIDQAHQNALKMWLDADRQAGMTYMANHFDKRCDPALLVEGTRCVVSVALNYYPATRIPDEEYQFAWYAYGKDYHDLMREKLATLFRFIQESDVPELNGRMFCDTAPVPERYWAWRAGLGWIGKNTQLIIPHAGSTFFLGELFLNTEADTYDRPQPNRCGRCNRCLQACPTKALETPYSLNAHRCLSYLTIENKSEIPDSIAPFMGNRVYGCDECQKACPWNRFATPCRTPELQPSPEFMNMKKEDWKQLSEEKYRALFKGSAVKRAKYSGLIRNIRQMED	not soluble
MEKDKQQLSVEVARLYYQSDYSQQEIANKLNISRPTISRLLKYAKEKGFVQISIADPFADLDNVGNLLKEKYNLLEAHVVFSPVPEYATITEYISKYAAEYMEKTVKNGDIVGVSWGMTMYEIARKIVPQHVKGVEVVQLKGGISHSSVNTYANETIALFADAFQTTPRNLPLPVIFDNAVTKELVEQDRHIHHIIEMGKQANIAIFTVGTVRDEALLFRLGYFDKDETNLLKKQSVGDICSRFFDGDGNISSEEINKRTIGIELEELKLKKRSILVAGGNRKIKAIDGALRGGYANVLIIDQHTAKELLHYQKG	not soluble
MGSDKIHHHHHHMNLVMEKTFEQYEKLFSMEEQKREDVFRYTMMRPFEKMWTAIQVPLKAKEPNGYDVIMAAKMLGYLDVRDAESGQKALQILKESHVSETAESALRQCIFFAEREQLRVNAKEIKFGLYIADPNKLQLQKGYCGFGGIPGFIHVWINPNSYNLPRIPSIIAHEFHHNVRFSYIDFHHGSVSVGDYLVIEGLAESFARELFGTERLGPWVTRFDHEDLQYSIDVINEVLDVKGFSEVSRYMFGDPIANDQGFKPAGLSAFAGYAVGYHAVQSFMNQHHITISEATRLDAKTIISQCGLFLHEKSVTYSGAF	not soluble
MGRFHRHDDGTVHSHDHDHHGHSHDVGDHSGYETGRERIEVLEDIFHENDHCAADNKELFDAHQVRCINIMSSPGAGKTTVLQHVLRAAEGKVRVGVVEGDIETSLDADRLTGFGAQISLLNTGNGFGGECHLDAPMVSRALRGLDLDTLDVVLIENVGNLVCPAEFEVGEHSKAMIYSVTEGEDKPLKYPVMFRSVDAVVINKIDLLPYLDFDMELFMKNLRQVNPDAKVFEVSAKTGEGLDGWIEWLVGAK	not soluble
MRYCQFEGCSNTTEKGAYCSEHARKSRKKKKPINVYHHDNKSFYRTKEWQDVADFVYEREGGCCQRCGRFVFGRQAHRHHVIPIKKNEMLKLDPNNIRLLCPKCHVIEENEADEKKVFPSYFKKLEHHHHHH	soluble
DVVVTQTPLSLPVSLGDQASISCRSSEVIVTRNGYTPIEWYLQKPGQSPKLLIYKAYKRFPGVPDRFSGSGSGTDFTLKISRVEAEDLGVYYCFDGSTVPPKFGGGTKLEIKRADAAPTVSIFPPSSEQLTSGGASVVCFLNNFYPKDINVKWKIDGSERQNGVLNSWTDQDSKDSTYSMSSTLTLTKDEYERHNSYTCEATHKTSTSPIVKSFNRDEC	soluble
MAHHHHHHMKNALFVNENMTILKIFYKDKLYMIKNKICGYQHDINENLVNNPHLLFLGRQEAWILILKCKEEAILQNCITATRYEEIRESEIERHDCVLGSLRK	not soluble
MSLNLSFAAIDFETATGYMESACAVGIVTVTDGEITDEYYSLIQPPENEYWRANMLVHGITPGMTESLPGFHAIYPEVKKRLQGNVVVAHNEQFDRNVLKNTMRMYGLDYDELSLPERWECTCRIYRSLGYKPVNLSACCEREGIELKHHEALSDARGCAKLYLNFLEKYRPLSTEGHHHHHH	soluble
MIHEVAGDGTKRSFHEKKKMDESYQRNGRTNLEHVPRLKLGKLFIFISASTNKTCLQIDNEITNN	not soluble
MQFNPGFSSLAALLADPGRAQMIWALMDGSARPASELALLAGVSPSSASGHLGRLVEGGVLSLEARGRNRFYRLAGPEVGQAVEALASASLALQPQRRSLPPSHGTPSALREARTCYDHLAGELAVGVFARMLDAGWIEQEGRTLRLSATGEAGLAGLGIDLAEVRRRRRQFACACPDWSERKPHLGGALGAALLEACLRQGWLRPQDGSRALQVSSKGRAGLRGLAERTAG	not soluble
MHHHHHHSSGVDLGTENLYFQSMARPATVLGAMEMGRRMDAPTSAAVTRAFLERGHTEIDTAFVYSEGQSETILGGLGLRLGGSDCRVKIDTKAIPLFGNSLKPDSLRFQLETSLKRLQCPRVDLFYLHMPDHSTPVEETLRACHQLHQEGKFVELGLSNYAAWEVAEICTLCKSNGWILPTVYQGMYNAITRQVETELFPCLRHFGLRFYAFNPLAGGLLTGKYKYEDKDGKQPVGRFFGNTWAEMYRNRYWKEHHFEGIALVEKALQAAYGASAPSMTSATLRWMYHHSQLQGAHGDAVILGMSSLEQLEQNLAAAEEGPLEPAVVDAFNQAWHLVAHECPNYFR	soluble
MGSDKIHHHHHHMTKHIHWDGNLSQEGFEIVKGEGGVIVCPTKVGYIIMTSDKKGLERKFEAKKRNRNKPGVVLCGSMEELRALAQLTPEIDAFYQKHWDEDILLGCILPWKAEAYEKLKAYGDGREELMTDIRGTSCFVIKFGVAGEQIAKEMWEKEGRMVYASSANPSGKGNRGKVEGIGERIESMVDLVIEADDYVASIQPDKTIETRYEQGVMVSMVDKDGKLIPQQGADSRSVEPCPVVIRKGLDIDKIMMHLSDQFNSWNYRQGEYY	not soluble
